Assay results published in patent US20180079808A1.

Experiments:
[1] = target: cynomolgus monkey rIL-13 (cynomolgus monkey) (UniProt Q0PW92)
[2] = target: human IL-13 variant (R130Q) (human) (UniProt P35225)
[3] = target: human IL-13 wild type (human) (UniProt P35225)
[4] = target: human IL-13 variant (R130Q) (human) (UniProt P35225); assay: column 'Affinity, KD (nM)', hIL-13v; method not given
[5] = target: human IL-13 wild type (human) (UniProt P35225); assay: column 'Affinity, KD (nM)', hIL-13wt; method not given

Sequence of human IL-13 wild type (human) (P35225 other isoform, or with tags, fused parts or gaps limits assumed): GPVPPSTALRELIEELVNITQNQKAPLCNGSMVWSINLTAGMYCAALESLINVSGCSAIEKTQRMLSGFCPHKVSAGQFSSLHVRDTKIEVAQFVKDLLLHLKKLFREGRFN
Sequence of human IL-13 variant (R130Q) (human) (P35225 35-146 limits assumed, stated change not applied): as the sequence (P35225 other isoform, or with tags, fused parts or gaps limits assumed) above, with R110Q counted along it
Sequence of cynomolgus monkey rIL-13 (cynomolgus monkey) (Q0PW92 entry or part of it): as the sequence (P35225 other isoform, or with tags, fused parts or gaps limits assumed) above, with G1S, R10K, M42V, S67N, H83R, L100V, R110Q counted along it

- Potency, IC50 (neutralisation of Cyno IL-13; assay not given) [1]: 0.9 nM
- Potency, IC50 (neutralisation of hIL-13v; assay not given) [2]: 0.17 nM
- Potency, IC50 (neutralisation of hIL-13wt; assay not given) [3]: 0.19 nM
- Kd [4]: 0.076 nM
- Kd [5]: 0.075 nM
B1: 13C5, murine version (antibody, from another filing, V domains shown)
VH: QVTLKESGPGILQPSQTLSLTCSFSGFSLSTSDMGVDWIRQPSGKGLEWLAHIWWDDVKRYNPALKSRLTISKDTSSSQVFLMLASVDTADTATYYCARTVSSGYIYYAMDYWGQGTSVTVSS
VL: DIQMTQTASSLSASLGDRVTISCRASQDIRNYLNWYQRKPDGTVKLLIFYTSKLHSGVPSRFSGSGSGTDYSLTIRNLEQEDIATYFCQQGNTLPLTFGGGTKLEIKR
